From the nanobody polyreactivity screen of Harvey et al. (2022)

Assay: yeast display, Sf9 membrane polyspecificity reagent, FACS + sequencing; frameworks hold sequencing errors
Summary of the method: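 Galactose induction of a Saccharomyces cerevisiae BJ5465 synthetic nanobody display library ran 36–48 hours. The cells were then stained for 1 hour at 4 °C with 10% biotinylated, detergent-solubilized Sf9 membrane reagent, pulled down on streptavidin microbeads and FACS-sorted into low and high (top ~1%) gates on expression and reagent-binding fluorescence. Labels for polyreactivity follow the gate of origin.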

Row | Sequence | polyreactivity (PSR sort gate)
1 | QVQLVESGGGLFQAGGSLRLSCAASGRTFKNNAMGWYRQAPGKERELVAAISSNGGSTYYADSVKGRFTISRDNAKNTVYLQMNSLKPEDTAVYYCAADRTIVEYYYWGQGTQVTVSS | high polyreactivity
2 | QVQLVESGGGLFQAGGSLRLSCAASGSIFERYTMGWYRQSPGKERELVAAISRSGGRTYYADSVKGRFTISRDNAKNTVYLQMNSLKAEDTAVYYCARTRVASKGYDYWGQGTQVTVSS | high polyreactivity
3 | QVQLVESGGGLFQAGGSLRLSCAASGSIFGDYAMGWYRQAPGKERELVAAITSSGGITYYADSVKGRFTISRDNAKNTVYLQMNSLKPEDTAVYYCAAYGYGSNYRYTCYYYWGQGTQVTVSS | low polyreactivity
4 | QVQLVESGGGLFQAGGSLRLSCAASGSIFRVYGMGWYRQAPGKERDLVAAITWSGGSTYYADSVKGRFTISRDNAKNTLYVQINSLKPDATAVYYCAARARPRYYRPPYDYWGQGTQVTVSS | high polyreactivity
5 | QVQLVESGGGLFQAGGSLRLSCAASGSIFYINAMGWYRQAPGKERELVAAISQSDGSTYYADSVKGRFTISSDNAKNTVYLQLNSLKPEDTAVYYCAADAYVLFYGDWYEFDYWGQGTQVTVSS | high polyreactivity
6 | QVQLVESGGGLFQAGGSLRLSCAASGSIYRKYAMGWYRQAPGKERELVATISWNGGRTHYADSVKGRFTISRDNAKNTVYLQMKSLKPEDTAVYYCAAHTRTSGHNYWGQGTQVTVSS | low polyreactivity
7 | QVQLVESGGGLFQAGGSLRLSCAASGSTFAFYDMGWYRQATGIERELVAIIDWSGGRTYYADSVKGRFTISRDNAKHTVYLQMNSLKPQDTAVYYCAVDYEYVGGDYWGQGTQVTVSS | low polyreactivity
8 | QVQLVESGGGLFQAGGSLRLSCAASGSTFESNAMGWYRQAPGKERELVAAISSSGGSTYYADSVKGRFTISRDNAKNTVYLQMNSLKPEVTAVYYCNKGGLSYYDYWGQVTQVTVSS | high polyreactivity
9 | QVQLVESGGGLFQAGGSLRLSCAASGSTFQYNAMGWYRQAPGKERELVARITSGGRTDYADSVKGRFTITRDNAKNTVYLQMNSLKPEDTAVYYCAARYGYRGSTKYLSKPFYYWGQGTQVNVSS | high polyreactivity
10 | QVQLVESGGGLFQAGGSLRLSCAASGSTFTTNAMGWYRQAPGKERELVAAITKRGGTTSYADSVKGRFTISRDNAKNSVYLLMNSLKPADTAVYYCAADVEVSWAYDAWWYGGGYYWGQCTQVTVSS | high polyreactivity
11 | QVQLVESGGGLFQAGGSLRLSCAASGSTLVGNAMGWYRQAPGKERELVATISSSGGSTYYADSVKGRFTISRDNAKNTVYLQMNSLKPEDTGVYYCAARIQWPTWSLYYYWGQGTQVTVSS | high polyreactivity
12 | QVQLVESGGGLFQAGGSLRLSCAASGTFVTYMGWYRQEPGQERELVAAIRNGGSTNYADSVKGRFTISRDNAKNTVYLQMNSLKPEDTAVYYCAARVTYSRGYRGGSRTKYDYWGQGTQVTVSS | low polyreactivity
13 | QVQLVESGGGLFQAGGSLRLSCAASGTTLVRYAMGWYRQAPGIERELVASISYSGGSTHYADSVKGRFTISRDNAKNTVYLQMNSLKPEDTAVDYWAARPYYSWGGHYYWGQGTQVTVSS | high polyreactivity
14 | QVQLVESGGGLFQAGGSLRLSCAATGRTYEGNAMGWSIQAPGKERELVAAITSGGRTNYADSVKGRFSISRDNAKNTVDLQMNSLKPEDTAVYYCAVETRDRSNYFPGQAYDYWGQGTQVTVSS | low polyreactivity
15 | QVQLVESGGGLFQAGGSLRLSFAASGIIFPYNLMGWYRQAPGKERELVAAITRGAASTYYADSVKGRFTISRDHEKNTVYLQMNSLKPEDTAVYFCNADGTWRTYNFWGQGTQVTVSS | high polyreactivity
16 | QVQLVESGGGLFQAGGSLRLSSAASGFIFWTNVMGWYRQQPGKVRELVAGISKSGGSTYYADSVKGRFTISRDNAKNTVYLQMNCLKPEDTAVYYCAAPRPPAGRYGYWGQGTQVTVSS | high polyreactivity

Row | Sequence | polyreactivity (PSR sort gate)
17 | QVQLVESGGGLFQAGGSLRLSSAASGFTFWYYAMGWYRQAPGKERELVASISRTGGTTYYADSVKGRFKISRDIAKNTVYLQMNSLKPEDTAVYYCAARRQARRYWEGDYWCQGTQVTVSS | high polyreactivity
18 | QVQLVESGGGLFQAGGSLSLSCAASGFIFYTNAMGWYRQAPGKERELVATITTSGGRTYYADSVKGRFTISRDNAKNTVFLQMNSLKPEDTAVDYCATRYVVIEYDYWGQGTQVTVSS | low polyreactivity
19 | QVQLVESGGGLFQEGGSLRLSCAASGYTFKGNAMGWYRQAPGKDWELVAAISRSGASTYYADSVKGRFTISRDNAKNTVYLQMNSLKPEDTAVYYCAAEWYRGGEYRRYDYWGQGTQVTVSS | high polyreactivity
20 | QVQLVESGGGLFQPGGILRLSFAASGSTIIDYAMGWYRQEPWKERELVASITWSGGSTYYADSVKGRFTFSRDNAKNTVYLQINCLKPVDSAVYYCNSDVNVGLEVLIVYEYDYWGQGTQVTVSS | low polyreactivity
21 | QVQLVESGGGLGQAGASLRLSCAASGLTFRYYALGWYRQAPGKLMELVAAISSRGASTYYADSVKGRITISRDNAKNTVYLQMTSLKPEDTAVYYCAARYTGKYEREYNYWGQGTQVTVSS | high polyreactivity
22 | QVQLVESGGGLGQAGASLRLSSAATGFTFRPNAMGWYRQAPGKERELVAAISWRGTRTSYADSVKGRFTISRDNAKNTVYLQMNSLKPEDTAVYSCAARLVRRYDYDYWGQGTQVTVSS | high polyreactivity
23 | QVQLVESGGGLGQAGGRLRLSCAASGSIFRRNAMGWYRQAPGKERELVAGISGGGSTYYADSVKGRFTISRDNAKNTVYLQMYSLKPEDTAVYYCATDKHYRWAGFDYWGQGTQVTVSS | low polyreactivity
24 | QVQLVESGGGLGQAGGSLRLICAASGRTFLYNAMGWYRQAPGNERELVASITSGGSTNYADSVKGRFTISRDNAKNTVNLQMNSVKPEDTAVYYCAADERRPYWQHSIGSGRPFDYWGQGTQVTVSS | low polyreactivity
25 | QVQLVESGGGLGQAGGSLRLSCAASGFTFRTNAMGWYRQAPGKEREFVAAISWSGGRTYYADSVKGRFTISRDNAKNTVYLQMNSLKPEDTAVYYCNADPFHWYYTNMYYWGQGTQVTVSS | high polyreactivity
26 | QVQLVESGGGLGQAGGSLRLSCAASGFTFTYNDMGWYRQAPGKEREFVAAISSTGGSTYYADSVKGRFTISRDNAKNTVYLQMNSLKPEDTAVYYCAAEDSWYWDAWFDYWGQGTQVTVSS | low polyreactivity
27 | QVQLVESGGGLGQAGGSLRLSCAASGFTFWYYGRGWYRQAPGKERELVAAITSSGGRTSYADSVKGRFTISRDNAKNTVYLQMNSLKPEETADYYCAALYSYYSLYDDYDYWGQGTQVTVSS | high polyreactivity
28 | QVQLVESGGGLGQAGGSLRLSCAASGFTFYYNAMGWYRQAPGKERELVATIRGTGSTNYADSVKGRFTISRDNAKNTVYLQMNSLKTEDTAVYYCDAPVDYQGDYWGQGTQVTVSS | low polyreactivity
29 | QVQLVESGGGLGQAGGSLRLSCAASGIIFVENAMGWNRQAPGKERELVATITSGDTTNYADSVKGRFTISRDNAKNTVYLQMNSLKPEDTAVYYCKKVVPDDAYIFAYDYWGQGTQVTVSS | low polyreactivity
30 | QVQLVESGGGLGQAGGSLRLSCAASGITFSGNAMRWYRQAPGKEREYVAAITWRGENTYYADSVKGRFTISRDTAKNTVSLQMNSLKPVDTAVYYCAAISPLVGLTSYRGPDDSWGQGTQVTVSS | low polyreactivity
31 | QVQLVESGGGLGQAGGSLRLSCAASGITFYPNGMGWYRPAPGKEREFVAAITSSGGSTYYADSVKGRFTISRDNAKNTVYLQMNSLKPEDTAVYYCAAQYYPISYYGYGYWGQGTQVTVSS | low polyreactivity
